We go through two molecules from patent publication US20040009174A1.

Several values for one entry are separate records, joined by “and”; a condition that tells them apart may be missing. Equal values may be shown once.

Experiment [1] deals with human CD40 (human) (UniProt P25942). As to the kind of experiment: cell-based or functional assay.
The target in experiment [2] is human OX40 ligand (OX40L) (human) (UniProt P23510). As to the kind of experiment: cell-based or functional assay.
Chain of UniProt P23510 (P23510 whole entry): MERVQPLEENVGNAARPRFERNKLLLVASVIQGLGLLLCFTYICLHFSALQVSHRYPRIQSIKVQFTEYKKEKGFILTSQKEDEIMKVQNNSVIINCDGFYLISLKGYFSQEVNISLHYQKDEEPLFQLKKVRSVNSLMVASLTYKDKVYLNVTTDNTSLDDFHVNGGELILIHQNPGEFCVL

Chain of UniProt P25942 (P25942 21-277): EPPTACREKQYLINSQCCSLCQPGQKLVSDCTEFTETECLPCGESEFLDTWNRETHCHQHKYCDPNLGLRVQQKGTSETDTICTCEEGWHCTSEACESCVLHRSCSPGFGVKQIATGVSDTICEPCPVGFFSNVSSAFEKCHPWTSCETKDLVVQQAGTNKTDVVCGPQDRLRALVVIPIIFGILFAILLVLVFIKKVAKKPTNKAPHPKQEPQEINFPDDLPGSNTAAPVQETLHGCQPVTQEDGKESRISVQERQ

In the case of “recombinant human soluble CD40L (from UniProt P29965 116-261) (ligand)”, the IL-6 production by HASM cells (ELISA), 1 ug/ml in experiment [1] was 2 fold and 3 fold.

B1: Soluble human recombinant OX40 [CD134]:Fc (Fc fusion, UniProt P43489 29-220, looked up, not shown: a dimerising Fc or GST)
chain: LHCVGDTYPSNDRCCHECRPGNGMVSRCSRSQNTVCRPCGPGFYNDVVSSKPCKPCTWCNLRSGSERKQLCTATQDTVCRCRAGTQPLDSYKPGVDCAPCPPGHFSPGDNQACKPWTNCTLAGKHTLQPASNSSDAICEDRDPPATQPQETQGPPARPITVQPTEAWPRTSQGPSTRPVEVPGGRAVAAILG
As for B1, in experiment [2], the IL-6 production by HASM cells (ELISA), 1 ug/ml was 2 fold and 3 fold; the PKCβ2 in membrane fraction (Western blot), HASM cells came to 3 fold.
